Columns and labels:
[1] = target: human replication protein A (RPA) heterotrimer, recombinant (human) (UniProt P27694)
[2] = target: RPA trimer lacking the RPA2 winged-helix domain (RPA-ΔWH) (human) (UniProt P27694)
[3] = target: human replication protein A (RPA) heterotrimer, recombinant (human) (UniProt P27694); remark: listed apart in the source
RPA2 WH (Homo sapiens) [4] = target: RPA2 WH (Homo sapiens) (UniProt P15927); assay: NMR; settings: cited from earlier work
[5] = target: RPA2 (subunit of the RPA trimer) (UniProt P15927); assay: MST with dye-labelled RPA trimer
[6] = target: RPA2 (subunit of the RPA trimer) (UniProt P15927); assay: peptide-bead pull-down, anti-RPA2 blot
RPA2 WH (Homo sapiens) [7] = target: RPA2 WH (Homo sapiens) (UniProt P15927); assay: ITC; settings: cited from earlier work

UNG catalytic domain (UNG-CD), starting at UNG2 aa 93, sequence (P13051 93-313): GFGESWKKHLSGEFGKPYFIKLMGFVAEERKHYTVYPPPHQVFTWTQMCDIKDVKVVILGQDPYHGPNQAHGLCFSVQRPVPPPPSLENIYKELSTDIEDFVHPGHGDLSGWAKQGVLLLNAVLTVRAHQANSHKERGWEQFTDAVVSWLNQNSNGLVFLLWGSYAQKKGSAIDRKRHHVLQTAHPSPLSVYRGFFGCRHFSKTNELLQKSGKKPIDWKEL
RPA2 WH (Homo sapiens), sequence (P15927 172-270): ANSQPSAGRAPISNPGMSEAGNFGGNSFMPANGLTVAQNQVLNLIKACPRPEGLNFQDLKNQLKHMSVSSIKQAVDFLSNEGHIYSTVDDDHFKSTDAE
human replication protein A (RPA) heterotrimer, recombinant (human), sequence (P27694 whole entry, chain 1 of 3, the tested form may be a part): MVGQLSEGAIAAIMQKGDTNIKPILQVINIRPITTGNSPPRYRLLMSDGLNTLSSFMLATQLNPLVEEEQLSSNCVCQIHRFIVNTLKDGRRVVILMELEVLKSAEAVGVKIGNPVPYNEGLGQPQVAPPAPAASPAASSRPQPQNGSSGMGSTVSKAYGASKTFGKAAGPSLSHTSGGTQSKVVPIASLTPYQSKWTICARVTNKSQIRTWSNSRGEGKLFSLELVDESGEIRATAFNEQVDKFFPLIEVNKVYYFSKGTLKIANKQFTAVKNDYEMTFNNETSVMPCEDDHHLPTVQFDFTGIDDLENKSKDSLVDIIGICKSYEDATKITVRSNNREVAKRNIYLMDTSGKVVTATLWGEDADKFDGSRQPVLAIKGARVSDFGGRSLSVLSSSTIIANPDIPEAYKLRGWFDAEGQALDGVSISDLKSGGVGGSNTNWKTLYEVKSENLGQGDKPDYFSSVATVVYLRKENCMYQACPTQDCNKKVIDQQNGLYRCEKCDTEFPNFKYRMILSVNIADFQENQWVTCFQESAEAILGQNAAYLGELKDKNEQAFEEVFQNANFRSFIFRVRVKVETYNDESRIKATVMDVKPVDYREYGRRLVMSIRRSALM
human replication protein A (RPA) heterotrimer, recombinant (human), sequence (P15927 whole entry, chain 2 of 3, further chain, the tested form may be a part): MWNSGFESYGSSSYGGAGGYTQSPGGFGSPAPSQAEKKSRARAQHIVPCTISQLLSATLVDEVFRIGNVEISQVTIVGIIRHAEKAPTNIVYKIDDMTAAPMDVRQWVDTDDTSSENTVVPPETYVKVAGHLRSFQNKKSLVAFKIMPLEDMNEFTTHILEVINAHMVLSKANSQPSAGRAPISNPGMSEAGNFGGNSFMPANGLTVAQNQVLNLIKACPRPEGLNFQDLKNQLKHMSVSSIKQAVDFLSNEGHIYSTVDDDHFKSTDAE
human replication protein A (RPA) heterotrimer, recombinant (human), sequence (P35244 whole entry, chain 3 of 3, further chain, the tested form may be a part): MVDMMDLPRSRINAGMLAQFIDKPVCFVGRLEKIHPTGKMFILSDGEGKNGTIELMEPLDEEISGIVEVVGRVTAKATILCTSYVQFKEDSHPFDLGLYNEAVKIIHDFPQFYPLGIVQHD
RPA trimer lacking the RPA2 winged-helix domain (RPA-ΔWH) (human), sequence (P27694 whole entry, stated change not applied, chain 1 of 3, the tested form may be a part): as the sequence (P27694 whole entry, chain 1 of 3, the tested form may be a part) above
RPA trimer lacking the RPA2 winged-helix domain (RPA-ΔWH) (human), sequence (chain, as listed by the source mutant, chain 2 of 3): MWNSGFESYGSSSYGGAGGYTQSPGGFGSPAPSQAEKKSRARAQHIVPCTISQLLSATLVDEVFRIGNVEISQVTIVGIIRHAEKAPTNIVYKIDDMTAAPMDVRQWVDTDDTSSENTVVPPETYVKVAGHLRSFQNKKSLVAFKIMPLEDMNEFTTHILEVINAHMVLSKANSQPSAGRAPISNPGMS
RPA trimer lacking the RPA2 winged-helix domain (RPA-ΔWH) (human), sequence (chain, as listed by the source mutant, chain 3 of 3): as the sequence (P35244 whole entry, chain 3 of 3, further chain, the tested form may be a part) above
UNG2 peptide (16 aa), sequence (P13051 whole entry): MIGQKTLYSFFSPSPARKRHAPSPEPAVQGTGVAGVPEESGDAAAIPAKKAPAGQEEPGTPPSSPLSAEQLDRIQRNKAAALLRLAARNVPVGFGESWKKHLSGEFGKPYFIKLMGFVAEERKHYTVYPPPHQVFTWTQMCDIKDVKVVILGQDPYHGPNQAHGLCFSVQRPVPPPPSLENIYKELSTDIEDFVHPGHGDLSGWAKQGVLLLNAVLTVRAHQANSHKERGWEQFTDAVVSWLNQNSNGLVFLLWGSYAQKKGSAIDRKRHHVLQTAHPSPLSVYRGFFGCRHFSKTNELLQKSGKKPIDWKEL
UNG2 peptide (24 aa), sequence (P13051 whole entry): as above

Question: Which results are given for “UNG catalytic domain (UNG-CD), starting at UNG2 aa 93 (from UniProt P13051-1 93-313) (domain or fragment)”?
Answer: fold decrease in uracil excision from RPA (1 µM)-coated against naked ssDNA (100 nM U10-25*) [1]: 1000 fold; fold increase of enzyme concentration needed to convert similar amounts of dsDNA substrate with 500 nM RPA-ΔWH [2]: 50 fold; fold increase of enzyme concentration needed to convert similar amounts of dsDNA substrate with 500 nM RPA-WT [3]: 200 fold

Question: For “UNG2 peptide (16 aa) (from UniProt P13051)”, which Kd (RPA2 WH (Homo sapiens) [4]) is on record?
Answer: The Kd was < 1 µM.

Question: For “UNG2 57-90 (from UniProt P13051) pEV-34 (pT60) peptide”, which “binding against the reference” value ([5]; reference: EV-34 unphosphorylated peptide, sites T60) is on record?
Answer: The value was “weaker”.

Question: Which “binding against the reference” value ([6]; reference: EV-34 unphosphorylated peptide beads, sites T60) does the source give for “UNG2 57-90 (from UniProt P13051) pEV-34 (pT60) peptide beads” here?
Answer: The value was “weaker”.

Question: With “UNG2 peptide (24 aa) (from UniProt P13051)” as the substance, how does the Kd (RPA2 WH (Homo sapiens) [7]) read?
Answer: The Kd was 6.6 µM.

Question: Which “binding against the reference” value ([5]; reference: EV-34 unphosphorylated peptide, sites T60,S64) does the source give for “UNG2 57-90 (from UniProt P13051) ppEV-34 (pT60, pS64) peptide” here?
Answer: The value was “weaker”.

Question: What about the “binding against the reference” value ([5]; reference: pEV-34 (pT60) peptide, sites S64) of the same substance?
Answer: Its value is “weaker”.

Question: With “UNG2 57-90 (from UniProt P13051) ppEV-34 (pT60, pS64) peptide beads” as the substance, how does the “binding against the reference” value ([6]; reference: EV-34 unphosphorylated peptide beads, sites T60,S64) read?
Answer: Its value is “weaker”.

Question: What about the “binding against the reference” value ([6]; reference: pEV-34 (pT60) peptide beads, sites S64) of the same substance?
Answer: Its value is “weaker”.
